Measured values as given in PMC4853472, “Trapping mammalian protein complexes in viral particles” (Nature Communications, 2016).

Experiments:
MAL TIR (Homo sapiens) = MAL TIR (Homo sapiens) (UniProt P58753); settings: cited from earlier work
[1] = target: T1, HMG-CoA reductase enzyme (HMGCR) (Homo sapiens, UniProt P04035); test: Virotrap: trapping in GAG-eDHFR virus-like particles, LC-MS/MS; format: cell-based; settings: MTX-PEG-simvastatin conjugate, not free simvastatin; 1 uM on HEK293T producer cells; DMSO and unrelated-bait controls
T1 construct: endogenous protein of HEK293T cells, trapped in GAG-eDHFR virus-like particles, identified by LC-MS/MS
T1 sequence (P04035 1-888): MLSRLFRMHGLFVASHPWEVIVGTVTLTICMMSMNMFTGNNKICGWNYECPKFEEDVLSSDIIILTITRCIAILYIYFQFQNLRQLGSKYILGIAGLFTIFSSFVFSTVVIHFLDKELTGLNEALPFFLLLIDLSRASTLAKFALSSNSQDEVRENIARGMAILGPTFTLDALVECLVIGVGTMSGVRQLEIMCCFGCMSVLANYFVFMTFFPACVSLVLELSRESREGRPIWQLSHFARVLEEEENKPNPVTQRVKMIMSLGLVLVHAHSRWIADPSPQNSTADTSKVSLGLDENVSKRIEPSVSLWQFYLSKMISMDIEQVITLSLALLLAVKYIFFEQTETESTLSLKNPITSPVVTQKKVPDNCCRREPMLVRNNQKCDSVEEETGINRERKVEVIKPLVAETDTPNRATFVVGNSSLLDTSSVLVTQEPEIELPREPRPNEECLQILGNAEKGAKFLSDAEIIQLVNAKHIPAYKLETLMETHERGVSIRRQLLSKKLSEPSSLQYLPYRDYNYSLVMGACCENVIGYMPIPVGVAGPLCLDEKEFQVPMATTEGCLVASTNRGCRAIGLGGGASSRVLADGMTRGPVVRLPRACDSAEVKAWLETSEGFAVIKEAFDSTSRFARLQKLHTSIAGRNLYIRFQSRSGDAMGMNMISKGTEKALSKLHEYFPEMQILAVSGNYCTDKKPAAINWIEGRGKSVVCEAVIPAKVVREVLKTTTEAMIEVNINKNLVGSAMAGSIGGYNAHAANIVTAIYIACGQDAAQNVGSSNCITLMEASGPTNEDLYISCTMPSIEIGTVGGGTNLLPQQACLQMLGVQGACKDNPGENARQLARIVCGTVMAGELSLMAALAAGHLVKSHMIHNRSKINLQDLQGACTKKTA

MAL TIR (Homo sapiens), sequence (P58753 81-216): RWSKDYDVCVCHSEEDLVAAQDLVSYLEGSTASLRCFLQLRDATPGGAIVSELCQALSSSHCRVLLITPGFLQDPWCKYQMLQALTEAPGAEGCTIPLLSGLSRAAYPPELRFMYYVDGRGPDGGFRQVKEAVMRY

Molecule | Kd (MAL TIR (Homo sapiens)) [µM] | Protein trapped in virus-like particles (LC-MS/MS) [1]
MYD88 TIR (from UniProt Q99836) | 8 | –
C[C@H]1C=C2C=C[C@H](C)[C@H](CC[C@@H]3C[C@@H](O)CC(=O)O3)[C@H]2[C@@H](OC(=O)C(C)(C)Cc2cn(CCOCCOCCOCCOCCOCCNC(=O)CC[C@H](NC(=O)c3ccc(N(C)Cc4cnc5nc(N)nc(N)c5n4)cc3)C(=O)O)nn2)C1 [MTX-linked simvastatin] | – | consistent enrichment of the known targets for simvastatin (HMG-CoA reductase enzyme (HMGCR))
